Measured values: US6623741B1, “Methods and compositions for inhibition of membrane fusion-associated events including RSV transmission” (Trimeris, Inc., priority 2000, dated 2003)

Assays:
[1] = Circular dichroism spectroscopy (helicity, thermal stability); assay type: physicochemical
Experimental: Circular Dichroism Spectroscopy:
Circular Dichroism (CD) spectra were obtained using an AVIV Associates 62DS spectrometer equipped with a thermoelectric temperature controller. Spectra were obtained in 0.1, 0.5 and 1.0 cm quartz cells at 1° C. with 0.5 nm steps from 200 to 260 nm, 1.5 nm bandwidth and an averaging time of 4 sec/step. After the cell/buffer blank was subtracted, spectra were smoothed using a third-order least-squares polynomial fit with a conservative (5-10 point) window size to give random residuals. Mixing experiments were performed by comparing the spectrum of the two peptides mixed together in a 0.1 cm path length cell at the desired concentrations (referred to herein as the “experimental” spectrum) to the sum of the individual spectra of the peptides, each solution in a 0.1 cm path length cell (referred to herein as the “model spectrum” for no peptide interaction or “model for no interaction”).
Raw ellipticity values were converted to mean residue ellipticity using standard methods (Cantor & Schimmel, 1980, Biophysical Chemistry Part II: Techniques for the Study of Biological Structure and Function, W.H. Freeman and Co., New York). Conversions for the mixing experiment spectra were performed using a peptide length corresponding to the average of the two peptides. Thermal stability measurements were performed in 2° C. steps, with 1 minute equilibration times. Spectra were smoothed, converted to mean residue ellipticity, and the corresponding value at 222 nm noted from each spectrum. Percent helicity values were calculated using single value decomposition with a basis set of 33 protein spectra (Johnson & Curtis, 1990, Proteins: Structure, Function and Genetics 7:205-214).

[2] = Analytical ultracentrifugation (sedimentation equilibrium); assay type: physicochemical
Experimental: Analytical Ultracentrifugation:
Sedimentation equilibrium experiments were performed on a Beckman Optima XL-A analytical ultracentrifuge at 4° C. Six-channel cells (12 mm optical path length) were used with an An-60 Ti rotor operated at 13,500, 16,000, 17,000, 20,000, 21,000, 24,000, 25,000, 27,500, 30,000 and 35,000 rpm. The cell radii were scanned using 0.001 cm steps with 10 averages/scan. Data were analyzed using Beckman XLA data analysis software (version 3.01 for Windows) and Beckman-Origin software (version 3.78 for Windows). […] The partial specific volumes were held constant for all models considered.
Single data files were normalized to 270 nm absorbance values using Beer's Law. The data obtained with solutions containing the DP107-like peptides were then analyzed using a single ideal species model to determine a weight-averaged molecular weight (Mw). Diagnostic plots of Mw/Mw0 vs. rpm/rpm0 and Mw vs. radial concentration were used to test for sample homogeneity as described, e.g., by McRorie & Voelker, 1993, Self-Associating Systems in the Analytical Ultracentrifuge, Beckman Instruments, Inc., Palo Alto; and Yphantis et al., 1978, in Physical Aspects of Protein Interactions: Proceedings of the Symposium on Protein Interactions, American Chemical Society Meeting, Catsimpoolas, Ed., pp. 275-303, Elsevier, Miami Beach, Fla. When systematic residuals or a Mw higher than the monomer molecular weight indicated the presence of self-association, associative models such as monomer/trimer, monomer/tetramer and monomer/dimer/tetrarner were investigated. The suitability of a particular model (i.e., the goodness of fit) was judged by the trends observed in the residuals (Johnson & Straume, 1994, in Modern Analytical Ultracentrifugation, Schuster et al., eds., pp. 37-65, Birkhauser, Boston). Using the associative model which produced random residuals when fitting individual data files, a simultaneous, global, weighted fit of multiple data files (up to nine files with different concentrations and speeds) was performed to determine the association constant and 95% confidence intervals. To convert the resulting association constant from absorbance units to concentration units, it was assumed that the absorbance of the n-mer is n times that of the monomer.
The data obtained with DP107-like/DP178-like peptide mixtures were first analyzed with a single ideal species model. When a systematic trend in residuals coupled with the Mw not equal to a precise multimer of HR1+HR2 were obtained, and alternate fitting scheme was explored. For this approach, it was assumed that the solution contained fully associated HR1-HR2 complexes and unassociated DP107-like and DP178-like peptides. The mixtures were analyzed with a two-ideal species model, choosing one species to have a molecular weight of either 28,269 Da (corresponding to three DP107-like plus three DP178-like peptides) or […] (corresponding to four DP107-like plus four DP178-like peptides).

M41Δ178 fusion protein = experiment: T83 ELARA (Biot-T20) IC50 Conc. (nM)
From the text: Table printed on a drawing sheet, FIG.24A
Head of the field: T83 ELARA (Biot-T20) IC50 Conc. (nM)
The patent's description of the figure: FIGS. 24A-B: Circular dichroism, cell fusion and competitive inhibition data for alanine walk experiments for the peptide T20, which is also known as DP178.
First copying reader's note: The table breaks off at the bottom of the sheet and continues on FIG. 24B; substituted alanine residues are printed in bold, and the T1342 FP column is empty on this sheet.

[3] = test system: HIV-1 (HIV-1LAI, HIV-1MN, HIV-1RF, HIV-1SF2); assay type: cell-based; conditions: lowest concentration tested, FIG. 4B
Experimental: Approximately 7×10^4 Molt cells were incubated with 1×10^4 CEM cells chronically infected with the HIV-1LAI virus in 96-well plates (one-half area cluster plates; Costar, Cambridge, Mass.) in a final volume of 100 μl culture medium as previously described (Matthews, T. J. et al., 1987, Proc. Natl. Acad. Sci. USA 84: 5424-5428). Peptide inhibitors were added in a volume of 10 μl and the cell mixtures were incubated for 24 hr. at 37° C. At that time, multinucleated giant cells were estimated by microscopic examination at a 40× magnification which allowed visualization of the entire well in a single field.
The initial screen for antiviral activity assayed peptides' ability to block syncytium formation induced by overnight co-cultivation of uninfected Molt 4 cells with chronically HIV-1 infected CEM cells. […] In the first of these experiments, serial DP178 (SEQ ID NO:15) peptide concentrations between 10 μg/ml and 12.5 ng/ml were tested for blockade of the cell fusion process. For these experiments, CEM cells chronically infected with either HIV-1LAI, HIV-1MN, HIV-1RF, or HIV-1SF2 virus were cocultivated overnight with uninfected Molt 4 cells.
The next series of experiments involved the preparation and testing of a DP178 (SEQ ID NO:15) homolog for its ability to inhibit HIV-1-induced syncytia formation.
The next series of experiments involved a comparison of DP178 (SEQ ID NO:15) HIV-1 and HIV-2 inhibitory activity.

Substance	%-Helicity ([1]; 35 μM peptide, PBS pH 7) [%]	Tm (midpoint of melting transition) ([1]; 35 μM peptide, PBS pH 7) [°C]	N-mer (weight-averaged molecular weight divided by monomer molecular weight) ([2]; 35 μM)	IC50 (RSV) [µg/mL]	IC50 (M41Δ178 fusion protein) [nM]	also measured
AVSKVLHLEGEVNKIKSALLSTNKAVVSLSNGVSVLTSKVLDLKNYIDKQ (Ac-AVSKVLHLEGEVNKIKSALLSTNKAVVSLSNGVSVLTSKVLDLKNYIDKQ-NH2) [Peptide T1772, RSV DP107-like peptide, residues 153-202 of the RSV F-protein]	83	42	–	–	–	%-Helicity ([1]; 1 μM T1772): 67%; Tm ([1]; 1 μM T1772): 30 °C; %-Helicity ([1]; 10 μM T1772): 80%; Tm ([1]; 10 μM T1772): 32 °C; %-Helicity ([1]; 50 μM T1772): 84%; Tm ([1]; 50 μM T1772): 42 °C; %-Helicity ([1]; 100 μM T1772): 90%; Tm ([1]; 100 μM T1772): 46 °C; oligomerization state in solution (in words) [2]: trimeric self-association; N-mer (weight-averaged molecular weight divided by monomer molecular weight) ([2]; 25 μM determination): 2.4; Mw, single ideal species model, single data set ([2]; 100 μM, 24,000 rpm): 12,925 Da; average Mw relative to the monomer molecular weight ([2]; average over concentrations): 2.4 times
Ac-AVSKVLHLEGEVNKIKSALLSTNKAVVSLSNGVSVLTSKVLDLKNYIDKQL-NH2 (N-terminus and C-terminus assumed) [Peptide T1584]	90	53	2.1	0.23	–	–
Ac-SGVAVSKVLHLEGEVNKIKSALLSTNKAVVSLSNGVSVLTSKVLDLKNYIDKQL-NH2 (N-terminus and C-terminus assumed) [Peptide T1623]	88	55	2.2	0.80	–	–
Ac-SKVLHLEGEVNKIKSALLSTNKAVVSLSNGVSVLTSKVLDLKNYIDKQ-NH2 [Peptide T1583]	–	–	–	1.09	–	–
Ac-VLHLEGEVNKIKSALLSTNKAVVSLSNGVSVLTSKVLDLKNYIDKQ-NH2 (N-terminus and C-terminus assumed) [Peptide T1581]	69	31	1.8	3.36	–	–
Ac-YTSLIHSLIEESQNQQEKNEQAAAELDKWASLWNWF-NH2 [T872]	–	–	–	–	66	–
Ac-YTSLIHSLIEESQNQQEKNEQELLELDKWAAAANWF-NH2 [T869]	–	–	–	–	57	–
T871: T20 with three consecutive residues changed to three alanine residues (YTSLIHSLIEESQNQQEKNEQELLAAAKWASLWNWF) [Peptide T871]	–	–	–	–	1160	–
T876: T20 with three consecutive residues changed to three alanine residues (YTSLIHSLIAAAQNQQEKNEQELLELDKWASLWNWF) [Peptide T876]	–	–	–	–	29	–
T1582: RSV HR1 (DP107-like) peptide of FIG. 28, shorter than T1581 (Ac-VLHLEGEVNKIKSALLSTNKAVVSLSNGVSVLTSKVLDLKNYIDK-NH2) [Peptide T1582]	49	22	1.5	–	–	–
T1590: RSV HR1 (DP107-like) peptide of FIG. 28, shorter than T1581 (Ac-VLHLEGEVNKIKSALLSTNKAVVSLSNGVSVLTSKVLDLKNYI-NH2) [Peptide T1590]	10	<10	–	–	–	–
YTNTIYTLLEESQNQQEKNEQELLELDKWASLWNWF [DP-185]	–	–	–	–	–	concentration exhibiting inhibitory activity on HIV-1-induced syncytia formation [3]: ≤ 312.5 ng/mL
